Measured values published in the supplement of paper PMC10724198.
± gives the standard deviation of the averaged measurements.

Test system: Saccharomyces cerevisiae
Experiment: protein stability index of tFT-peptide fusion (C-terminal peptide) (PSI (0-1 scale)); higher = more stable (slower turnover)
Details: genetic background: das1 deletion; temperature: 30 C
Protocol: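 MPS profiling in S. cerevisiae of the yeast C-terminome library: the last 12 aa of each annotated ORF are fused to the C-terminus of a sfGFP-mCherry timer, after a GGGS linker. Cells are FACS-sorted into 8 mCherry/sfGFP bins and deep-sequenced. PSI runs from 0 (unstable) to 1 (stable); wild type and das1Δ backgrounds, two technical replicates each.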

Sequence | protein stability index
TNQASPHHIFRG [ORA1 C-terminal 12 aa] | 0.702 ± 0.016
TQEMENTKLAES [GIS1 C-terminal 12 aa] | 0.692 ± 0.01
TRSSGDDQVFVF [PGA3 C-terminal 12 aa] | 0.707 ± 0.0082
TSTITTTITMTL [SHE10 C-terminal 12 aa] | 0.636 ± 0.041
TTDNVTVMVVFL [PTC1 C-terminal 12 aa] | 0.489 ± 0.0077
TVFASNSFGVYV [OST5 C-terminal 12 aa] | 0.669 ± 0.02
TVGTGLITRIIE [TUF1 C-terminal 12 aa] | 0.694 ± 0.032
TVHQLRDRGFDI [ENV9 C-terminal 12 aa] | 0.73 ± 0.0077
TVIALLVGWIYY [SCS22 C-terminal 12 aa] | 0.241 ± 0.01
TVSNETKEARET [SPT14 C-terminal 12 aa] | 0.6843 ± 0.0053
TWFKYFKWLDMF [MRX3 C-terminal 12 aa] | 0.7723 ± 0.0025
TYMLNGPAGLLM [YNL165W C-terminal 12 aa] | 0.6979 ± 0.0034
TYSTLINIDVSL [NIC96 C-terminal 12 aa] | 0.702 ± 0.059
VAEKIPENETTH [ISW1 C-terminal 12 aa] | 0.6915 ± 0.0016
VAPKPKTKQEKK [WRS1 C-terminal 12 aa] | 0.684 ± 0.0071
VDGFNDALQLSK [HEM14 C-terminal 12 aa] | 0.685 ± 0.022
VDMTSIFDFMLN [POL1 C-terminal 12 aa] | 0.7408 ± 0.0055
VDTILDEDFLLR [APC11 C-terminal 12 aa] | 0.715 ± 0.016
VEHRYHKSVSRL [YBR012C C-terminal 12 aa] | 0.816 ± 0.046
VENEDEPLFIER [INP51 C-terminal 12 aa] | 0.708 ± 0.0089
VENTTVDFNYDM [YLR179C C-terminal 12 aa] | 0.69 ± 0.016
VFKSKCKKIYIG [DGR1 C-terminal 12 aa] | 0.7125 ± 0.0067
VFNNISLNFYIQ [YLL020C C-terminal 12 aa] | 0.782 ± 0.059
VGFCGLYYYFRK [YPR195C C-terminal 12 aa] | 0.647 ± 0.018
VIIKVFIRRSDA [YJL086C C-terminal 12 aa] | 0.515 ± 0.024
VIPHRGKKPVQN [AUS1 C-terminal 12 aa] | 0.68051 ± 0.00019

Sequence | protein stability index
VKDIHGRIPEML [AXL2 C-terminal 12 aa] | 0.6952 ± 0.0058
VKEYYKKSDVGR [ATG9 C-terminal 12 aa] | 0.7026 ± 0.004
VKFVYRQRIALV [YLL037W C-terminal 12 aa] | 0.577 ± 0.0095
VKSLQVKKSHLK [CDC12 C-terminal 12 aa] | 0.704 ± 0.0088
VLGFFKRRSMKI [FRK1 C-terminal 12 aa] | 0.72 ± 0.014
VLNFFKRRSMRV [KIN4 C-terminal 12 aa] | 0.625 ± 0.013
VLSVISAVFGLI [PLB1 C-terminal 12 aa] | 0.674 ± 0.016
VLTAGVNSVAIK [RPN11 C-terminal 12 aa] | 0.6646 ± 0.0021
VLVCFQTFILLQ [YDL032W C-terminal 12 aa] | 0.152 ± 0.012
VMLFSSNHQALG [MAG2 C-terminal 12 aa] | 0.704 ± 0.014
VNFDIEEEQEGQ [JJJ3 C-terminal 12 aa] | 0.685 ± 0.011
VRKGQEKSKKHS [SEI1 C-terminal 12 aa] | 0.678 ± 0.01
VRVPKKSKKLKK [PDR10 C-terminal 12 aa] | 0.7169 ± 0.0069
VSKELRSRDLLD [RPE1 C-terminal 12 aa] | 0.68 ± 0.027
VSNNLIIDEETF [BIM1 C-terminal 12 aa] | 0.7174 ± 0.0056
VSSLRKHGEHYS [TRM82 C-terminal 12 aa] | 0.704 ± 0.021
VTSIMDMPISRE [MVP1 C-terminal 12 aa] | 0.685 ± 0.019
VTSKSALESIFP [YGP1 C-terminal 12 aa] | 0.73 ± 0.0083
VVLSYSMVGSVM [MAY24 C-terminal 12 aa] | 0.4645 ± 0.0021
VVVCRLHFSLPV [YKL111C C-terminal 12 aa] | 0.562 ± 0.0059
VVYYHMVCKNIT [YHR125W C-terminal 12 aa] | 0.5662 ± 0.0017
VWNTFYKLGKRV [TMT1 C-terminal 12 aa] | 0.7048 ± 0.0066
VYDYQYIYKGKQ [SIA1 C-terminal 12 aa] | 0.701 ± 0.016
VYTSKTRYRFAV [YHR210C C-terminal 12 aa] | 0.7137 ± 0.0024
WEHLHSGFSKNK [ELG1 C-terminal 12 aa] | 0.723 ± 0.012
WKKFLKFSKGSD [HXT17 C-terminal 12 aa] | 0.696 ± 0.0084

Sequence | protein stability index
WKQGGGDFRTKK [RBA50 C-terminal 12 aa] | 0.709 ± 0.022
WLDCTTLPNYQG [KAP122 C-terminal 12 aa] | 0.7222 ± 0.0061
WNLQTLAADDAF [RPB11 C-terminal 12 aa] | 0.765 ± 0.03
WYNPSNQTYKSK [YLR222C-A C-terminal 12 aa] | 0.719 ± 0.038
YAVSELEGPMLD [CSC1 C-terminal 12 aa] | 0.7 ± 0.016
YCLFEKPTETTN [ALG9 C-terminal 12 aa] | 0.736 ± 0.029
YDYNSKNSRGFY [DEF1 C-terminal 12 aa] | 0.6999 ± 0.0051
YFKETLYKLANE [HIS5 C-terminal 12 aa] | 0.687 ± 0.023
YFLAERERINNH [PEX4 C-terminal 12 aa] | 0.721 ± 0.0079
YGCIALTVVFIL [YAR069C C-terminal 12 aa] | 0.232 ± 0.0061
YISKAGSYEVRY [APM4 C-terminal 12 aa] | 0.68349 ± 0.00019
YKASGSYLEKYF [YPK3 C-terminal 12 aa] | 0.7123 ± 0.0023
YKKVQWAKVLEQ [SFG1 C-terminal 12 aa] | 0.709 ± 0.022
YKLFKFLTRERS [BNA4 C-terminal 12 aa] | 0.7081 ± 0.0051
YKNKVGVGIPFI [STE14 C-terminal 12 aa] | 0.728 ± 0.019
YKQVSSHNSHSQ [CUP2 C-terminal 12 aa] | 0.68 ± 0.034
YLEAFQWLSQYI [SAR1 C-terminal 12 aa] | 0.7969 ± 0.0076
YLLGIYRDNKKC [ALG5 C-terminal 12 aa] | 0.727 ± 0.0028
YNINHRKSVNSV [TDA9 C-terminal 12 aa] | 0.706 ± 0.0094
YNSELVATKDIQ [PNT1 C-terminal 12 aa] | 0.703 ± 0.012
YSELCIIVGTYY [YDR003W-A C-terminal 12 aa] | 0.431 ± 0.012
YSLYRSRSKEAF [SAP190 C-terminal 12 aa] | 0.714 ± 0.048
YVRFYRGKLNNP [YOL036W C-terminal 12 aa] | 0.704 ± 0.022
YWALGVALTGSK [YDR417C C-terminal 12 aa] | 0.6933 ± 0.0046
YWRKQYPDADLP [YAR028W C-terminal 12 aa] | 0.714 ± 0.015
YYNLKNCITSET [YHR050W-A C-terminal 12 aa] | 0.661 ± 0.007
